Measurements from patent US20210347873A1 (SHANGHAI PHARMAEXPLORER, published 2021).

Key:
[1] = molecular target: biotinylated hBLyS-ECD (human) (UniProt Q9Y275); assay: ELISA, biotinylated hBLyS-ECD captured on streptavidin; antibody 0.00427 nM
[2] = molecular target: biotinylated hBLyS-ECD (human) (UniProt Q9Y275); assay: ELISA, biotinylated hBLyS-ECD captured on streptavidin; antibody 0.0213 nM
[3] = molecular target: human BLyS (full length, arginine to histidine at position 132) on CHO-K1 cells (human) (UniProt Q9Y275); assay: flow cytometry, CHO-K1 hBLyS cells, antibody 0 nM
human BLyS (full length, arginine to histidine at position 132) on CHO-K1 cells (human), sequence (Q9Y275 whole entry R130H, the tested form may be a part): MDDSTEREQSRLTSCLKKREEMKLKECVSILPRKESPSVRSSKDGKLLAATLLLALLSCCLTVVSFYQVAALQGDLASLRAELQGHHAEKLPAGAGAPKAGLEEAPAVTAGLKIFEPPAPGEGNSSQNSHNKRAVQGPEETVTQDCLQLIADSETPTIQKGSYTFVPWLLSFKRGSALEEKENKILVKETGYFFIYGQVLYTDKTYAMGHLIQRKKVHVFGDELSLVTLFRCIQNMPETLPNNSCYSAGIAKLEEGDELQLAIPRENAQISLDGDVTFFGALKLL

[4] = molecular target: cynomolgus BLyS (full length, arginine to histidine at position 132) on CHO-K1 cells (cynomolgus); assay: flow cytometry, CHO-K1 cynoBLyS cells, antibody 0 nM
cynomolgus BLyS (full length, arginine to histidine at position 132) on CHO-K1 cells (cynomolgus), sequence (Q9Y275 other isoform, or with tags, fused parts or gaps limits assumed): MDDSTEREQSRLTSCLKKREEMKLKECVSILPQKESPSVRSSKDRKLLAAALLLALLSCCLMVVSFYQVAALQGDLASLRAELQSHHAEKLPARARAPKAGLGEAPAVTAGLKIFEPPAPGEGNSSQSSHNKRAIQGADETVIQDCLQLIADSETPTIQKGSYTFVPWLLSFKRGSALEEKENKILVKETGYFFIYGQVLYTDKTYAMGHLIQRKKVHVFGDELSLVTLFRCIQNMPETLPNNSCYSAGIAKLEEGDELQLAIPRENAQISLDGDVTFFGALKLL

[5] = molecular target: biotinylated hBLyS-ECD (human) (UniProt Q9Y275); assay: blocking ELISA: biotinylated hBLyS-ECD on coated BAFF R, antibody 0.00128 nM
[6] = molecular target: human BLyS (full length, arginine to histidine at position 132) on CHO-K1 cells (human) (UniProt Q9Y275); assay: flow cytometry, CHO-K1 hBLyS cells, antibody 0.0213 nM
[7] = molecular target: human BLyS (full length, arginine to histidine at position 132) on CHO-K1 cells (human) (UniProt Q9Y275); assay: flow cytometry, CHO-K1 hBLyS cells, antibody 0.107 nM
[8] = molecular target: biotinylated hBLyS-ECD (human) (UniProt Q9Y275); assay: ELISA, biotinylated hBLyS-ECD captured on streptavidin; antibody 66.7 nM
[9] = molecular target: biotinylated hBLyS-ECD (human) (UniProt Q9Y275); assay: blocking ELISA: biotinylated hBLyS-ECD on coated BAFF R, antibody 0.032 nM
biotinylated hBLyS-ECD [10] = molecular target: T1, biotinylated hBLyS-ECD (human, UniProt Q9Y275 134-285, biotinylated with Biotin-X-X-NHS (molar ratio 7:1); sites not stated); assay: BAFF R-coated ELISA, biotinylated hBLyS-ECD bound in presence of antibody 0.032 nM
T1 construct: also called biotinylated immunogen; biotinylated hBLvS-ECD
T1 sequence (Q9Y275 134-285): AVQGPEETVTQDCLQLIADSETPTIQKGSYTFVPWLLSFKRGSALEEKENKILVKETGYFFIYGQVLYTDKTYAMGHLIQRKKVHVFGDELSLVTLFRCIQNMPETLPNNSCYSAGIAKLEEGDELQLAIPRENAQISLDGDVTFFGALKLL

[11] = molecular target: extracellular domain of human BLyS protein (hBLyS-ECD), His-tagged, Ala134-Leu285 (human, UniProt Q9Y275 134-285); assay: cell-based or functional assay
extracellular domain of human BLyS protein (hBLyS-ECD), His-tagged, Ala134-Leu285, sequence (Q9Y275 134-285): as above

biotinylated hBLyS-ECD [12] = molecular target: T1, biotinylated hBLyS-ECD; assay: ELISA on captured biotinylated hBLyS-ECD; antibody 0.107 nM
biotinylated hBLyS-ECD [13] = molecular target: T1, biotinylated hBLyS-ECD; assay: ELISA on captured biotinylated hBLyS-ECD; antibody 13.3 nM
biotinylated hBLyS-ECD [14] = molecular target: T1, biotinylated hBLyS-ECD; assay: ELISA on captured biotinylated hBLyS-ECD; antibody 0.00427 nM
biotinylated hBLyS-ECD [15] = molecular target: T1, biotinylated hBLyS-ECD; assay: ELISA on captured biotinylated hBLyS-ECD; antibody 0.534 nM
biotinylated hBLyS-ECD [16] = molecular target: T1, biotinylated hBLyS-ECD; assay: ELISA on captured biotinylated hBLyS-ECD; antibody 66.7 nM
biotinylated hBLyS-ECD [17] = molecular target: T2, biotinylated hBLyS-ECD (human, UniProt Q9Y275 134-285, biotinylated with Biotin-X-X-NHS (molar ratio 7:1), sites not stated); assay: ELISA: biotinylated hBLyS-ECD captured on streptavidin, antibody titrated, HRP secondary antibody [label printed at the top of D00004]
T2 construct: The hBLyS-ECD of Embodiment 1 after biotinylation (Embodiment 2); also called biotinylated immunogen; BLyS protein; not shown: His tag of the pCPC vector
T2 sequence (Q9Y275 134-285): as above
Description: (§1) Streptavidin was first diluted to a final concentration of 1.0 μg/mL with PBS, and then 50 μL of diluted streptavidin per well was aliquoted into 96-well ELISA plate, which was subsequently sealed with plastic film and incubated at 4° C. overnight. On the next day the plate was washed four times with the plate washing buffer [PBS buffer containing 0.05% (v/v) Tween20] and added with the blocking solution [PBS buffer containing 0.05% (v/v) Tween20 and 1% (w/w) BSA] and blocked for 2 hours at 37° C. The blocking solution was removed, the biotinylated hBLyS-ECD prepared in Embodiment 2 was diluted with PBS to a final concentration of 50 ng/mL and then aliquoted into the 96-well ELISA plate at 50 μL per well and incubated for 1 hour at 37° C. After rinsing the plate four times with the plate washing buffer [PBS buffer containing 0.05% (v/v) Tween20], 100 μl of the purified lead antibody harvested in Embodiment 1 and 2 was pipetted into each well. After incubation for 1 hour at 37° C., the plate was rinsed four times with the plate washing buffer [PBS buffer containing 0.05% (v/v) Tween20]. HRP-labeled (horseradish peroxidase) secondary antibody (purchased from Sigma) was added in and incubated at 37° C. for 1 hour. The plate was then rinsed four times with the plate washing buffer [PBS buffer containing 0.05% (v/v) Tween20]. 100 μL of TMB substrate was aliquoted into each well and after incubation for 5 minutes at room temperature, 100 μL of stop solution (1.0 N HCl) was aliquoted into each well. A₄₅₀ₙₘ values were read via an ELISA plate reader (SpectraMax M5e purchased from Molecular Devices) and the results were shown in FIGS. 5A-5B and Table 10.

biotinylated hBLyS-ECD [18] = molecular target: T2, biotinylated hBLyS-ECD; assay: ELISA: biotinylated hBLyS-ECD captured on streptavidin, antibody titrated, HRP secondary antibody
Description: as §1, with “The plate was then rinsed four times with the plate washing buffer [PBS buffer containing 0.05% (v/v) Tween20]. 100 μL of TMB substrate was aliquoted into each well and after incubation for 5 minutes at room temperature, 100 μL of stop solution (1.0 N HCl) was aliquoted into each well.” left out

biotinylated hBLyS-ECD (human), sequence (Q9Y275 134-285): as above

mIgG Control (antibody)
OD450 nm [1]: 0.0695 | OD450 nm [2]: 0.0595 | MFI [3]: 30.3 MFI | MFI [4]: 19.8 MFI | OD450 nm [5]: 1.42 OD450 nm | MFI [6]: 32.7 MFI | MFI [7]: 31.6 MFI | OD450 nm [8]: 0.0708 | OD450 nm [9]: 1.45 OD450 nm

hIgG Control (antibody)
OD450 nm [1]: 0.108 | OD450 nm [2]: 0.111 | MFI [3]: 27.2 MFI | MFI [4]: 20.7 MFI | OD450 nm [5]: 1.13 OD450 nm | MFI [6]: 33.6 MFI | MFI [7]: 32.9 MFI | OD450 nm [8]: 0.148 | OD450 nm [9]: 1.11 OD450 nm

B1: c8E7D9C7F5 (antibody, V domains shown)
VH: QVQLQQSGVELARPGASVKLSCKASGYTFTSYGISWVKQRTGQALEWIGEIYPRSGNTYYNEKFKGKATLTADKSSSTAYMELRSLTSEDSAVYFCARSGPITTLVATDYGMDYWGQGTSVTVSS
VL: DIVLTQSPASLAVSLGQRATISCRASKSVSTSSYSYMHWYQQKPGQPPKLLIKFASNLESGVPARFSGSGSGTDFTLNIHPVEEEDAATYYCQHSREFPYTFGGGTKLEIK
notes: also called chimeric antibody c8E7D9C7F5
OD450 nm (biotinylated hBLyS-ECD [10]): 1.97 OD450 nm | OD450 nm (as headed), mouse B lymphocyte proliferation; antibody 0 nM [11]: 4750 | OD450 nm (as headed), mouse B lymphocyte proliferation; antibody 0.000256 nM [11]: 4970 | OD450 nm (as headed), mouse B lymphocyte proliferation; antibody 0.00128 nM [11]: 5150 | OD450 nm (as headed), mouse B lymphocyte proliferation; antibody 0.0064 nM [11]: 5280 | OD450 nm (as headed), mouse B lymphocyte proliferation; antibody 0.032 nM [11]: 4620 | OD450 nm (as headed), mouse B lymphocyte proliferation; antibody 0.16 nM [11]: 4110 | OD450 nm (as headed), mouse B lymphocyte proliferation; antibody 0.8 nM [11]: 2070 | OD450 nm (as headed), mouse B lymphocyte proliferation; antibody 4 nM [11]: 488 | OD450 nm (as headed), mouse B lymphocyte proliferation; antibody 20 nM [11]: 367 | OD450 nm (as headed), mouse B lymphocyte proliferation; antibody 100 nM [11]: 345 | OD450 nm (biotinylated hBLyS-ECD [12]): 1.7 OD450 nm | OD450 nm (biotinylated hBLyS-ECD [13]): 3.32 OD450 nm | OD450 nm (biotinylated hBLyS-ECD [14]): 0.176 OD450 nm | OD450 nm (biotinylated hBLyS-ECD [15]): 3.07 OD450 nm | OD450 nm (biotinylated hBLyS-ECD [16]): 2.32 OD450 nm

B2: c97A3C2H4 (antibody, V domains shown)
VH: EVKLVESGGGLVQPGGSLKLSCAASGFTFSTYTMSWVRQTPEKRLEWVAYISYGGGSTSYPDTVKGRFTISRDNAKNTLYLQMSSLKSEDTAIYYCTRHVTVVENSMDYWGQGTSVTVSS
VL: DILLTQSPDILSVSPGERVSFSCRASQSIGTSIHWYQQRTNGSPRLLIKYVSESFSGTPSRFSGSGSGTAFTLTINSVESEDIADYYCQQTHSWPWTFGGGTKLEIK
notes: also called chimeric antibody c97A3C2H4
OD450 nm (biotinylated hBLyS-ECD [10]): 1.84 OD450 nm | OD450 nm (as headed), mouse B lymphocyte proliferation; antibody 0 nM [11]: 4440 | OD450 nm (as headed), mouse B lymphocyte proliferation; antibody 0.000256 nM [11]: 5020 | OD450 nm (as headed), mouse B lymphocyte proliferation; antibody 0.00128 nM [11]: 4870 | OD450 nm (as headed), mouse B lymphocyte proliferation; antibody 0.0064 nM [11]: 5280 | OD450 nm (as headed), mouse B lymphocyte proliferation; antibody 0.032 nM [11]: 4450 | OD450 nm (as headed), mouse B lymphocyte proliferation; antibody 0.16 nM [11]: 3740 | OD450 nm (as headed), mouse B lymphocyte proliferation; antibody 0.8 nM [11]: 1460 | OD450 nm (as headed), mouse B lymphocyte proliferation; antibody 4 nM [11]: 578 | OD450 nm (as headed), mouse B lymphocyte proliferation; antibody 20 nM [11]: 424 | OD450 nm (as headed), mouse B lymphocyte proliferation; antibody 100 nM [11]: 444 | OD450 nm (biotinylated hBLyS-ECD [12]): 2.35 OD450 nm | OD450 nm (biotinylated hBLyS-ECD [13]): 3.33 OD450 nm | OD450 nm (biotinylated hBLyS-ECD [14]): 0.25 OD450 nm | OD450 nm (biotinylated hBLyS-ECD [15]): 3.26 OD450 nm | OD450 nm (biotinylated hBLyS-ECD [16]): 2.41 OD450 nm

B3: 97A3C2H4 (antibody, V domains shown)
VH: B2 VH
VL: B2 VL
notes: Mouse hybridoma antibody purified on Protein G
EC50 (read off the curve) (biotinylated hBLyS-ECD [17]): ~0.2 nM

B4: 111D10D6G3 (antibody, V domains shown)
VH: QVQLQQPGAELVKPGASVKMSCKASGYTFTRHWITWVKQRPGQGLEWIGDIFPGSGSINYNEKFKSEATLTVEKSSSTAYMQLSSLTSEDSAVYYCARGDVDVWGTGTTVTVSS
VL: DIQMTQSPSSLSASLGERVSLTCRASQEIRGYLSWLQQKPNGTIKRLIYAASTLDSGVPKRFSATRSGSDFSLTISSLESEDFADYYCLQYASYPFTFGSGTKLEIK
notes: as for B3
EC50 (read off the curve) (biotinylated hBLyS-ECD [17]): ~0.2 nM

B5: L9G7 (antibody, human IgG1, V domains shown)
VH: QIQLVQSGAEVKKPGASVKVSCKASGYTFTSYGISWVRQAPGQGLEWMGWISAYNGNTNYAQKLQGRVTMTTDTSTSTAYMELRSLRSDDTAVYYCARTYYDILTGYYYYGMDVWGQGTTVTVSS
VL: EIVLTQSPGTLSLSPGERATLSCRTSQSVDTYLAWYQQKPGQAPRLLIYDASNRATGIPARFSGSGSGTDFTLTISSLEPEDFAVYYCQQRSNWPLTFGGGTKVEIK
EC50 (read off the curve) (biotinylated hBLyS-ECD [18]): ~0.2 nM

B6: L1D12 (antibody, human IgG1, V domains shown)
VH: QVQLVQSGGGLVQPGGSLRLSCAASGFTVSSNYMSWVRQAPGKGLEWVSVIYSGGSTYYADSVKGRFTISRDNSKNTLYLQMNSLRAEDTAVYYCARGFHDILTGYGMDVWGQGTTVTVSS
VL: SSELTQDPAVSVALGQTVRITCQGDSLRNYYAGWYQQKPGQAPVLVIYGKNNRPSGIPDRFSGSSSGNTASLTITGTQAEDEADYYCSSRDNSGTHLVEFGGGTKLTVL
notes: also called LID12
EC50 (read off the curve) (biotinylated hBLyS-ECD [18]): ~0.1 nM
